US20240240203A1

Columns and labels:
[1] = target: Ad5 hexon capsid protein with DogTag inserted into the HVR5 loop, on Ad5 virions (Ad5-HVR5-DogTag) (human adenovirus serotype 5 (Ad5)) (UniProt P04133)
[2] = target: Ad5 hexon capsid protein with DogTag inserted into the HVR5 loop, on Ad5 virions (Ad5-HVR5-DogTag) (human adenovirus serotype 5 (Ad5)) (UniProt P04133); remark: listed apart in the source

Substance	coupling efficiency (% total hexon protein coupled) [1]	coupling efficiency (% hexon coupled) [2]
DogCatcher fused to SARS CoV-2 Spike receptor binding domain (Wuhan strain, residues 319-532) (from UniProt P0DTC2 319-532)	64%	
DogCatcher fused to the receptor binding domain of haemagglutinin (HA) from Influenza A (H1 A/Califo		44%
